This is an account of results in patent US20160279250, “METHODS FOR STRUCTURAL DETERMINATION OF SELENIUM DERIVATIZED NUCLEIC ACID COMPLEXES” (SeNA Research ,Inc., published 2016).

For the series, the target named is RNase H (D132N, inactive mutant) (Bacillus halodurans, UniProt Q9KEI9 Q9KEI9:59-196, D132N). Put plainly: structure; PDB 3TWH, 1.80 A; 5 mM MgCl2, MES pH 6.5, PEG 20000; substrate complex. Conditions: tags: expressed in BL21(DE3) pLysE, 5 bp duplex with one-base overhang at both ends. As to the method: By using the sitting-drop vapor diffusion method at 25° C., the crystals were readily obtained from a mixture of the crystallization screen [Buffer: 0.1 M MES, pH 6.5; precipitant: 12% (w/v), PEG 20000].
We have synthesized Se-modified DNAs to investigate the DNA/RNA/RNase H complex. […] The complex of RNase H/RNA/Se-DNA (5′-UCGACA-3′/5′-AT-^SeG-TC-^SeGp-3′) was crystallized in a buffer containing 0.1 M MES (pH 6.5) and precipitant (12% w/v, PEG 20000). The crystals were also grown using the sitting drop vapor diffusion method. The crystals appeared within a week and reached their maximum size within a month. Two crystals were used to collect the MAD/SAD data sets. […] After the SAD or MAD dataset is collected from a single crystal, the selenium atoms can be located by direct methods and the phase can be determined similarly to the well-established protein strategy (Elkayam et al., Cell, 150:100-110 (2012); Ferre-D'Amare et al., Nature, 395:567-574 (1998); Hendrickson, Science, 254:51-58 (1991); Hendrickson, Trends Biochem. Sci., 25:637-643 (2000); Schirle and MacRae, Science, 336:1037-1040 (2012); Yang et al., Science 249:1398-1405 (1990)).
The Se-complex structure was finally determined (3TWH; 1.80 Å resolution; FIG. 1) via the selenium anomalous signal and MAD phasing. […] Moreover, the Se-complex structure has been determined by both MAD phasing and molecular replacement. […]

B1: Se-DNA/RNA duplex (DNA-Se, double Se) (DNA:RNA)
DNA: ATGTCG
RNA: UCGACA
modifications: 6-Se-dG at DNA positions 3 and 6; DNA 3'-phosphate
On to B1, for which the binding result is “binds”.
